Consider 10 molecules from patent publication US20070111265A1 (VAN ANDEL RESEARCH INSTITUTE, published 2007).

No end group written: not given here.

In experiment [1] the target is T1, MR LBD (C808S) with K785E first charge clamp mutation, 6xHis-GST fusion protein (human, UniProt P08235 727-984).
T1 construct: not shown: glutathione S-transferase (GST) tag; thrombin protease site between GST and the MR LBD
T1 sequence: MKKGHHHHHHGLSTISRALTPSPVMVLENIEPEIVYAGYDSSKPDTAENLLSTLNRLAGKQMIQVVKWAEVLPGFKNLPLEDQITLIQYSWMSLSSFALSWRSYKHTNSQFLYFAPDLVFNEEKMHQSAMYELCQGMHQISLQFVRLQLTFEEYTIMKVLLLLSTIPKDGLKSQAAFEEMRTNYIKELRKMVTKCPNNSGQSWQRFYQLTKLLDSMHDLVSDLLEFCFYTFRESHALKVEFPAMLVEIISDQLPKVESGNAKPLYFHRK
As to the kind of experiment: AlphaScreen, 100 nM corticosterone. Background: Bead proximity is the source of the signal in Alpha formats.

Experiment [2] concerns the target T2, MR LBD (C808S) with E962R first charge clamp (AF-2 helix) mutation, 6xHis-GST fusion protein (human, UniProt P08235 727-984).
T2 construct: not shown: glutathione S-transferase (GST) tag; thrombin protease site between GST and the MR LBD
T2 sequence: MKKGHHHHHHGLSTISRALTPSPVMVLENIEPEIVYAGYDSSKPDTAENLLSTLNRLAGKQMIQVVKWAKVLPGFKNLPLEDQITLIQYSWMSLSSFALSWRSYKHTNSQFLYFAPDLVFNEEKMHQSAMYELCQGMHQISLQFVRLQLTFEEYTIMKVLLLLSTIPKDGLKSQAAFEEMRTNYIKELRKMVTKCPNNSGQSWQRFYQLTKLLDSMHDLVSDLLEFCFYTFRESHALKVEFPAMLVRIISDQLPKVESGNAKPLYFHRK
Kind of experiment: AlphaScreen, 100 nM corticosterone.

Experiment [3] addresses T3, human MR LBD (residues 727-984) containing a C808S mutation, 6xHis-GST fusion protein (human, UniProt P08235 727-984).
T3 construct: also called purified MR LBD; MR LBD (C808S); not shown: glutathione S-transferase (GST) tag; thrombin protease site between GST and the MR LBD
T3 sequence: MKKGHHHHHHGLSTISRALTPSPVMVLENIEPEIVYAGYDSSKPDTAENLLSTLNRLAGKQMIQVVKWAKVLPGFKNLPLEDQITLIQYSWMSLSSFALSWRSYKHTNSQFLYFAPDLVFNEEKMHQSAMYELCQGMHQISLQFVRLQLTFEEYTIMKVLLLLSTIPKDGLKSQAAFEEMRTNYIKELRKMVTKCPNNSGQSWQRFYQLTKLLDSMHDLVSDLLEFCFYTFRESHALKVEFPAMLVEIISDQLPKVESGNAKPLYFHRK
As to the kind of experiment: AlphaScreen quantitative competition with unlabeled peptide, MR LBD/corticosterone.

Experiment [4] deals with T3, human MR LBD (residues 727-984) …. As to the kind of experiment: AlphaScreen, biotinylated peptide and 6xHis-GST MR LBD/corticosterone.
Experimental: (§1) The binding of various peptide motifs to MR was determined by AlphaScreen assays using a hexahistidine detection kit from Perkin-Elmer. MR proteins were prepared as 6×His-GST fusion proteins for the assays.
For experiment [5] the target is unchanged. As to the kind of experiment: AlphaScreen competition (IC50 per FIG. 3F legend), MR LBD/corticosterone.
Experimental: as §1

B1: biotinylated SRC1-4 peptide (peptide)
peptide: QKPTSGPQTPQAQQKSLLQQLLTE
modifications: also: biotinylated, site not given here
As to B1, in experiment [1], the binding result was “no binding”.

B2: biotinylated SRC2-3 (TIF2) peptide (peptide)
peptide: QEPVSPKKKENALLRYLLDKDDTKD
modifications: also: biotinylated, site not given here
notes: also called third LXXLL motif of SRC2; TIF2/GRIP1 third motif
B2: in experiment [1], the binding result was “no binding”.

B3: biotinylated SRC1-2 peptide (peptide)
peptide: SPSSHSSLTERHKILHRLLQEGSP
modifications: also: biotinylated, site not given here
Take B3: the binding result in experiment [1] and in experiment [2] was “no binding” each time.

B4: unlabeled SRC3-1 peptide (peptide)
peptide: SKGHKKLLQLLTCSS
notes: also called 1st motif of SRC3
For orientation: IC50 means the concentration needed to halve the response being measured. The low end stands for inhibition by little substance, the high end for a need for much substance. Molecule B4 came in with an IC50 in experiment [3] of 16.8 µM.

B5: unlabeled SRC1-4 peptide AQQKSLLQQLLTE (peptide)
peptide: AQQKSLLQQLLTE
notes: treated as one molecule; also called SRC1-4 LXXLL motif
In the case of B5, the IC50 in experiment [3] is 0.9 µM.

B6: biotinylated SMRT-2 peptide (peptide)
peptide: QAVQEHASASTNMGLEAIIRKALMGKY
modifications: also: biotinylated, site not given here
notes: also called SMRT corepressor motif
As for B6, in experiment [4], the binding result is “no binding”.

B7: biotinylated NCOR-2 peptide (peptide)
peptide: GHSFADPASNLGLEDIIRKALMGSF
modifications: also: biotinylated, site not given here
notes: also called N-COR corepressor motif
For the molecule B7, the binding result in experiment [4] is on record as “no binding”.

B8: SRC2-(2+3), human SRC2 fragment (residues 563-763) containing the 2nd and 3rd LXXLL motifs, 6xHis-GST fusion protein (other, UniProt Q15596 563-763, looked up)
chain: QNSPVNMNPPPLSKMGSLDSKDCFGLYGEPSEGTTGQAESSCHPGEQKETNDPNLPPAVSSERADGQSRLHDSKGQTKLLQLLTTKSDQMEPSPLASSLSDTNKDSTGSLPGSGSTHGTSLKEKHKILHRLLQDSSSPVDLAKLTAEATGKDLSQESSSTAPGSEVTIKQEPVSPKKKENALLRYLLDKDDTKDIGLPEIT
notes: No removal of the 6xHis-GST tag is described; also called purified SRC2 fragment; not shown: 6xHis tag; glutathione S-transferase (GST) tag
The molecule B8 returned an IC50 in experiment [5] of 0.04 µM.

B9: SRC2-(M2+3), SRC2 fragment (2+3) with the 2nd LXXLL motif mutated to LXXAA (other, UniProt Q15596 563-763, looked up)
chain: QNSPVNMNPPPLSKMGSLDSKDCFGLYGEPSEGTTGQAESSCHPGEQKETNDPNLPPAVSSERADGQSRLHDSKGQTKLLQLLTTKSDQMEPSPLASSLSDTNKDSTGSLPGSGSTHGTSLKEKHKILHRAAQDSSSPVDLAKLTAEATGKDLSQESSSTAPGSEVTIKQEPVSPKKKENALLRYLLDKDDTKDIGLPEIT
notes: not shown: 6xHis tag; glutathione S-transferase (GST) tag
B9: in experiment [5], the “fold decrease of binding affinity against SRC2-(2+3)” value was more than 10 fold.

B10: unlabeled SRC1-1 peptide (peptide)
peptide: SQTSHKLVQLLTTTA
notes: also called 1st motif of SRC1
Molecule B10 showed an IC50 in experiment [3] of 21.4 µM.
